According to the DeepSol protein solubility set:

Assay: soluble on expression in E. coli; label from the status in PepcDB or PDB records

Sequence: MSLAELAAVPAAPDDRLYSADNTQSSGETIRHLTWSGYEAANVQRPFEKKFDCQTGVDLFTSNLDAFNRLDDGAWREFDHATFDMAWLPDLAEAGLIRPLDYEAWKPYTFDKYTDLFQRENGYEFAFLDEDYNFDADGQLYGVPQRFGWASFALNTDVVSESDARSYDAAWADEYDVGVYDLPFWGVQIVMLREGIDPYATHTDAEVERIREATVALFENAAGVYADVGSLNTALAAGDIDIAFVSGNWINGSLRRGGRFEYEARVPDEGGVIWVETTTMLKGSHPSVSTNYLAYMQHGITAKNLMWPTVGGTNVVPHQSSIDRLNRRQRTVLRIDDLQDIIDKSRFYTGEGHHHHHH
- soluble on expression in E. coli: soluble

Sequence: MAHHHHHHMKYLTFNRSNKDAIDLCERLEATKIDLANPLLLQYSWVIWEQVSDNKIKQSNNYKDYTRPLAKFNSVQKFWQLWNRLPQPSDLLAQKSMTRLSEDGTLRIIDALMIFRDNIQPMWEDPANAEGGHFEYKFVPRDFPYSQIDEFWNNLVLAIIGCTLKHYNLITGIRLVDKLSTTRHGYVRIEIWYTTVPDESVRNHLRKDLEEHMCNRIDGSHVYPPRGKNFSHSHK
- soluble on expression in E. coli: soluble

Sequence: MALWVDKYRPKDLLGKDGVDYHIEQANHLKFLSADCMPHLLFCGPSGAGKKTRIKCLLRELYGVGVEKTQLIMKSFTSPSNKKLEIQTVSSNYHIEMTPSDVGIYDRVVVQDLVKEMAQTSQIESTSQRSFKVVVLCEADSLTRDAQHGLRRTMEKYANNCKIVLSCESLSRIIEPLQSRCIIINVPAPTDEDVTKVLRKVIERESFLLPENVLQKIVEKSEGNLRRAILMTEALRMENESGVAESVVIPVPEWEIYIQETARLILQKQSSDMLLKVRERLYELLSRCIPPTVIFKKLLEHLLPKCPPQIAREVVSEAAKFEHRLVLGQKAIFHLEGFVAAFMDIYLTNASKPK
- soluble on expression in E. coli: not soluble

Sequence: MSLVTSMTFYETRFPEDISYGSTGGPEFTTSIIETNNGYEYRKINISYPRNKYNIMYSVKSEEELLKLINFFYIHKGKAIGFRFKDWADYKAIQQKIGIGDNHQTTFQLVKTYKVDQFSYIRTITKPVINTVKIYYNDSIKNNGFSVNLSNGQIKFDIAPKDGIEIFADYEFDVPVRFDSDYLPYSIDNYKQYNCNNITLIEVKTEGHHHHHH
- soluble on expression in E. coli: not soluble

Sequence: QVQLKESGPGLVAPSQSLSITCTVSGFSLTDYGVDWVRQPPGKGLEWLGMIWGDGSTDYNSALKSRLSITKDNSKSQVFLKMNSLQTDDTARYYCVRDPADYGNYDYALDYWGQGTSVTVSSAKTTPPSVYPLAPGSAAQTNSMVTLGCLVKGYFPEPVTVTWNSGSLSSGVHTFPAVLQSDLYTLSSSVTVPSSTWPSETVTCNVAHPASSTKVDKKIVPRDCG
- soluble on expression in E. coli: soluble

Sequence: MGSDKIHHHHHHMQLITSLDIRNSEYLSKDRLISYHHQLRLIFSLGNQVKNVLEIGIFNSLLTDILKNNGYNVTTADVDPNLKPEMILDLTTDFSLPKDKFDAIVLFQVLEHFPYEQSEEALKKLAEATKKFLVISIPYCTQYLSFQIKSSFSGRPRYLLLSVPKFWSTKPVCDEHYWEMGLKGYPKKRILNSVANAGLTVKQEFIDPSYPYHYFLVLEKTNNI
- soluble on expression in E. coli: not soluble

Sequence: DPDEDSDNSAIYVQGLNDSVTLDDLADFFKQCGVVKMNKRTGQPMIHIYLDKETGKPKGDATVSYEDPPTAKAAVEWFDGKDFQGSKLKVSLARKKPPMN
- soluble on expression in E. coli: soluble

Sequence: MRPPSELLDIISKLAELDPLVRKGAVRQLSSKQEELSDNELNTYVIERLISGCASARAAVRLGYTTALGTILMTKAGESWELDKILAVADKKMDLAEKTVGTGHAIGHYLILVTYCQTRKLKEAEATKIVEHSKKIRDFAPSLAFSQINLLCSLATKTKESVFQKSVSPAIEMNLEGLSSQFTPENVYLALRLRNSHSTVVAKYAKFVKKDGSIQFSDDQYPKILAALKRCDFATVQVFLPLLIKASVESSGFDKMYLKVLEPWALSSNETKVFDRILTIVTQFFDFGGDVKSIVVVFTKEVLNRMETATRGKGQFRLMSKKVDDFAAFIQSKLSELRDEEAYTALKELEKCGNVDKACGTGLTTALLSNLGKKQISVWIKENLSNQDEVRKIVSAFSNWDEKSRITVLSALLSQKATETSQSVVTSIIDSLFYVKTRAGEFASIQISEKNEEVLRQLVVAVQGEEEVKKAEKSIGKSKLRKKSLQILWYVTRLWSRIAASSVDSAAYDSDSSEILAIAKNEADGNNSLVFVDLLLSILSREQKFHRTPTAFAFVHAIPTLESKDLCHIVETAMMSEAELAGNDDEDMEDEEGMPFDESEIPSGNGDDEASDSDDDDEEEDDDEGNEAVDQELLDKLNAALGDAAPRDSSSDVEMDDLDDEAMQKMDERLAAAFKAIAPKAGKDKKRSAKSVEALKMKIADLLLIAISSKELAEQSKIKLVVPLLKWAKVDAKTHDKVAQKVLELVNIVVKMKFTDVSEKDALQLLKQVLDEAQTTTNILIIDTVARCVTFVLKISSRDGKSMSAGVKTEFQSLFENYLKNVEGKVPSNFVIQPIADLPLLFVDQLGMLIDAGFDEENRIFKRTEILGAIAMIFTKQVLQETNIKGAIIKKIGKLAAAYFQKVVDSDKSELKPRLFGTVLQLILKVTVCIQNDEKHVDALRESLEYVIQKMFEGEVFIQLKKINPTCHHIIGKSIAGAFTSIKKSLDIEN
- soluble on expression in E. coli: not soluble

Sequence: MELRDRIDFLCKTILAIKTAGRLVLGIDGLSRSGKTTLANQLSQTLREQGISVCVFHMDDHIVERAKRYHTGNEEWFEYYYLQWDVEWLTHQLFRQLKASHQLTLPFYDHETDTHSKRTVYLSDSDMIMIEGVFLQRKEWRPFFDFVVYLDCPREIRFARENDQVKQNIQKFINRYWKAEDYYLETEEPIKRADVVFDMTS
- soluble on expression in E. coli: soluble

Sequence: MESIGLVEVNSIARGIEAADAMLKAAQVDLLEAKPVCPGKYIVLICGDVAAVQSSVTAGKTMAAHSVLDDFILPNVHPQVLTAISAATPLTLIKALGIIETFSIASLIVAADTAAKTGQVDLVEIRIGMGIGGKSFVTLTGDVASVESSVAAGVMLASERGMLVDKVVIPSPHDHLKRCLC
- soluble on expression in E. coli: soluble

Sequence: MGSDKIHHHHHHMRYQNTYAQLDTRLYHEQLPNPLDNPRAGHFNNQVADQLGWTKAADLMARWVEILGGQYVPAEFQPLSMAYAGHQFGQWAGQLGDGRGLLMTQVLDKNNQLQDLHLKGAGLTPYSRMGDGRAVLRSTIREYLCGHALTQLGIASSNALGFVVSDTKVRRERLEAGAALMRVADSHIRLGHVEWIASFAPDLLAEFTDYMIDTYYPECRDSEKPVLAFLQAVVERTARMIADWQLIGFAHGVMNTDNLSITGSTLDFGPFGFMERFNPAWINNHSDHSGRYAYQNQPAIGHWNLNVWLPHFMRLTQAGVTRETLADCLAPYEATFMQHYQQGLCRKLGLPHQRESLSLAFEWLTLLEDNLLDYTNSFRALLGLIAPNEHLYEQQLLATMTAELNPEAQQVWQVWSTRYLAQIQQVSITQAIEEMQASNPIYILRNSMAQRVIVAAEQGQFEELNRVFDLLAKPYTLQDSAIELDTLPPAPHAPQMPISCSS
- soluble on expression in E. coli: not soluble

Sequence: MISENYSRNLVGYGRNAPDPKWPGGARIAVQFVINYEEGGESCILDNDKASESLLSEIVGAQPWPGQRNLNMESIYEYGSRAGFWRLWRMFTGLGVTTTVYGVTAAMARNPEAVAAMKEAGWEIASHGYRWLEYKDFSEEEERKHIVEAVHLHTELTGERPYGMYQGKPSDNTLRLVMEEGGFLYSSDSYADDLPYWVKGVGDEPFLIIPYTLDTNDMRFATPQGFNSGDQFFTYLKDAFDVLYQEGVEGAPKMMSIGLHCRLVGRPGRAAALRRFIEYVLGHEKVWIPQRLEIARHWHEHHKPETP
- soluble on expression in E. coli: not soluble

Sequence: GAVDLNDDVLDMGTGLRMQLYQCGDPRGRPVLYLHGMLDGMAPLEYLKHDFARRGLRVLAPVRPGYGLSEPVAGVEPGLRAMASHAVELIDRFALDRVAILGHMAGAVTGYVLRAGGDPRLAGMVAVAASGPLLRRAQLSGMARRQRMMAMTARWTPALLPFFVRAGIALIDSEEVGRFMDALYPPGSHERQVVDRLELAALMHAGYRFAAQSGTAGFEADALTMVSPWQRLSDGGTCPVVHLHGALDPVVPAAETARFAASISGASFRRFEDVGQFLIYERPDAVLDAIEAMLPPR
- soluble on expression in E. coli: not soluble

Sequence: SNGSSVASTSPSVKCKEDQGLNGHEEKENPFAEYMWMENEEDFNRQVEEELQEQDFLDRCFQEMLDEEDQDWFIPARDLPQAVGHLQQQLNGLSVGDSHESEDILSKSNLNPDAKEFVPGVKY
- soluble on expression in E. coli: soluble

Sequence: MENKMVEYRKKFGLSQEKLAEKLGVSRQTIISIEKGKYDPSLPLAFEIAKTFQTTIEHVFIYEGKEGEE
- soluble on expression in E. coli: not soluble

Sequence: MSFASGCTPVSFDKLFEVSSGDKVSRENWGMIARPEPQHDSLKRRNTTSSIAKKKAKMTRGDEQITDETARKAATQLLDQIQDTPGRISLNFETPEAASVCPIPTSLNQIVNTKWTVNQLQEGQLTMLLAQDANKFKSLGVKNIKKGSVETQILPRQMDVKEIVEKLKKQDNDSDQFVGYAAAVANVLRRCDAETAQKITQAITATIEKEAPSIVNC
- soluble on expression in E. coli: not soluble

Sequence: MSTNEIYNREEVLLLIEKLLGNNIEIPILLMLLLGLRMGEATGLRWSDVDLDNNLINVNQILVYSNGKISFKEPKTPKSKRALSAPKELIEKLKIEKLRQSKLKLQGILENKNNLVCLNTNLNPFLPSSLRKTFHNFTKKNNLKKIRIHDLRHTSATLLLLGGTNMKVVSERLGHTDIKITMNRYSHVLKEMDKEASDNLSELLEHHHHHH
- soluble on expression in E. coli: not soluble

Sequence: MSGPEELEAGASDSNAGGSSRQGQEQERVEPVLEGVPQPNDQESADEDLTARQPPIQPQVPNASDNLQVPPNLEYLIAVNPSQLITTIQIGAEVARLEELEDEYRQELELIRMTESLGEELLQKENELRSRAGYLGRLDVLENRRNYEDEAAENLAIRTVQNRVLLLRRARAELYERERIARKTFIWRLRRFKNPTDQSVNTWMETLNDRLNRVANSWERRREPHEQAIRDYERLVATRQRTEEDRRRERASNRAGPSNQEDYDSEDEDEHHVDELPDLLELLSLVVNPVIGGGGISTNRAEYLNPRGTEGLGADDPDLNDSGGTVYQSDEEESEDEAEIDHQEGPSNWRPKRPRRDDDEGGSGSSASMWNAPSTSSQALGRSC
- soluble on expression in E. coli: not soluble

Sequence: MGGSHHHHHHGMASALELLSPQSPFRVDRGEHLPFLVKGARYTLVPAGQEGGGQTWRPLPGTTSPEDSSHLHRGQKKGAALGMAVYPYNCQAHAP
- soluble on expression in E. coli: not soluble

Sequence: MSWLKEVIGTEKAVIAMCHLRALPGDPSFDAQLGMNWVIDKAWDDLMALQNGGVDAVMFSNEFSLPYLTKVRPETTAAMARIIGQLMSDIRIPFGVNVLWDPVASFDLAMATGAKFIREIFTGAYASDFGVWDTNVGETIRHQHRIGAGEVKTLFNIVPEAAVYLGNRDICSIAKSTVFNNHPDALCVSGLTAGTRTDSALLKRVKETVPDTVVLANTGVCLENVEEQLSIADGCVTATTFKKDGVFANFVDQARVSQFMEKVHHIRR
- soluble on expression in E. coli: not soluble

Sequence: AEVTQLSNGIVVATEHNPSAHTASVGVVFGSGAANENPYNNGVSNLWKNIFLSKENSAVAAKEGLALSSNISRDFQSYIVSSLPGSTDKSLDFLNQSFIQQKANLLSSSNFEATKKSVLKQVQDFEDNDHPNRVLEHLHSTAFQNTPLSLPTRGTLESLENLVVADLESFANNHFLNSNAVVVGTGNIKHEDLVNSIESKNLSLQTGTKPVLKKKAAFLGSEVRLRDDTLPKAWISLAVEGEPVNSPNYFVAKLAAQIFGSYNAFEPASRLQGIKLLDNIQEYQLCDNFNHFSLSYKDSGLWGFSTATRNVTMIDDLIHFTLKQWNRLTISVTDTEVERAKSLLKLQLGQLYESGNPVNDANLLGAEVLIKGSKLSLGEAFKKIDAITVKDVKAWAGKRLWDQDIAIAGTGQIEGLLDYMRIRSDMSMMRW
- soluble on expression in E. coli: soluble

Sequence: MSLVPQGGPVLCRDEMEEWSASEAMLFEEALEKYGKDFNDIRQDFLPWKSLASIVQFYYMWKTTDRYIQQKRLKAAEAEGHHHHHH
- soluble on expression in E. coli: not soluble
